This passage reports Kd results from publication PMC7530383.

In the experiment the target is actin (coated on the BLI biosensor). The experiment can be described thus: BLI; APS biosensor coated with actin; rTLP-1 in PBS pH 7.4 with 0.05% Tween 20 and 0.1% BSA; Octet RED, 25 °C; 300 s association, 120 s dissociation; n = 3.

“Recombinant transgelin‐like protein 1 (rTLP‐1) from Mytilus coruscus (natural protein)” gave a dissociation constant (Kd) of 9.45 µM.

A word on the Kd: it is the concentration at which binding is half-saturated. Low readings indicate higher affinity, high ones lower affinity.
